The source of these data is patent publication US20220047687A1, “CHEMICAL SCALPEL” (FUNDACIÓN INSTITUTO DE INVESTIGACIÓN SANITARIA FUNDACIÓN …, priority 2019, published 2022).

“Also recorded” adds a separate entry of the source.

Data set [1] has as its system peritoneal adhesions (polypropylene mesh). Briefly: Peritoneal adhesion model group 1 (10 small polypropylene mesh pieces): mesh release. It counts as in vivo, rat. The text has this: Intervention of 5 6-week old Wistar rats of a total of 10 rats belonging to a first group (Group 1). Prior inhalation anesthesia with Forane, the animal being shaved, and aseptic measures being implemented, a minimal opening is made in the skin and the abdominal wall to implant 10 small pieces of polypropylene mesh, five on each side of the midline. They are cut into small 0.5 cm^2 pieces previously wetted with pss (physiological saline solution (0.9% ClNa).
After that (two days later than the first intervention), intervention is performed on the remaining 5 Wistar rats of group 1, and identical follow-up of weight and wound progression, with the administration of analgesia for the next 72 hours.
Four months after the application of the intraperitoneal prostheses, the animals are operated on again for the phase final of the experiment. Before that blood is drawn. First, the experiments are performed on rats belonging to group 1. The study is randomized in pairs and single-blind (investigator). […] Next, the results obtained in each of the operated rats are collected: • 1. R13, 295 g: Dictation: “To the naked eye no meshes are found. At the mesentery and terminal ileum of the cecum there is an area that is folded over and apparently comprises small pieces of mesh. There are no adhesions to the closure of the abdominal wall. Non-traumatic entry.”

Data set [2] concerns mutated KRAS oncogene. Briefly: Digital PCR of KRAS in plasma. Particulars: plasma. Type of data set: in vivo, rat. As for the experimental part:
The procedure was performed 2 times in the TCQ group, the first time with collagenase and after 2 minutes peritoneal washing with mitomycin C at the different concentrations to be tested was repeated. […] Blood was also collected from all the animals before sacrificing them, the blood was processed within the hour following its extraction to obtain plasma and to analyze, on one hand, the existence of the mutated KRAS oncogene (mutation in codon 12 of exon 1 expressed by DHD cells), and on the other hand the existence of collagenase traces or residues in blood after the peritoneal washes. A digital PCR was used for the KRAS oncogene localization study. For the collagenase trace study, the anonymized samples were sent to Lyposmol laboratories for the performance of specific anti-MMP-1 and anti-MMP-2 ELISAS.
To analyze the presence of mutated KRAS in the blood of the different groups by means of digital PCR, DNA was extracted from at least 2 ml of plasma/group by means of the QlAamp Circulating Nucleic Acid kit according to the manufacturer's data and the results were those listed in Table 4.

In data set [3] the test system is mesothelial layer covering the intestinal tract. The experiment in a line: First tests of peritoneal washing with collagenase on rat (Wistar). Type of data set: in vivo. The conditions noted are these: optimum concentration and time (35 U/mL, 10-15 minutes). As for the experimental part:
For the purpose of fine-tuning the volume of the cavity and the optimum treatment time so that no organ in the cavity will sustain any damage, twenty 6-week old Wistar rats weighing 250 grams were used, and they were tested at different concentrations of 35 U/mL of collagenase and 37 U/mL of collagenase for clinical use. Up until now, all the studies had been performed with collagenase for experimental use, nevertheless, the choice was made to use collagenase authorized for clinical use from now on, taking into account the potency equivalence calculations requested from the manufacturer. A study was then conducted using different times of treatment with collagenase from 2 minutes to 30 minutes (30, 20, 15, 10, 5, and 2) with n=2 in the 4 intermediate times.

The subject of data set [4] is peritoneal tissues. The experiment in a line: First tests of peritoneal washing with collagenase on mouse (fine-tuning). Particulars: for necropsy findings: mice.
Method: Six 5-week old double knock-out female mice (LIPDKO), from which the lipocalin-2 gene (which affects neutrophil recruitment) and the ApoE gene (which makes it more probable for the mice to develop atherosclerosis) have been eliminated, were used. […] Each concentration was injected to 2 mice according to their weight.
Cells obtained from washing which grew in culture dishes as well as the morphology of the peritoneal tissues after washing at different concentrations were analyzed.
Once the enzyme dose was selected, the actuation time was determined in the same manner and on the same model by means of tests from 40, 30, 20, 10, and 5 minutes. Throughout this fine-tuning method, the washing liquid was collected and cultured in a complete medium to analyze the cells obtained; different organs of the animals were also collected at the same time to check for the existence at any time (concentration/time) of any organ damage and to check the condition of the peritoneal tissues.
Data set [5] relates to abdominal organs and peritoneum. Briefly: Survival and necropsy of healthy rats after peritoneal washing (groups A, B). The conditions noted are these: group A, collagenase 37 U/mL; 1 died after surgery due to evisceration. The text has this:
During this phase, a series of survival experiments were established with various work groups and subgroups to learn about the co-adjuvant or enhancing role of collagenase in the treatment of peritoneal tumors with chemotherapeutic agents such as mitomycin C:
Each group initially consisted of 6 rats (2×3). In the initial design, 3 animals were sacrificed after 15 days and the rest were left until the conditions of the animals required them to be sacrificed (subcutaneous tumor growth >0.5 cm in diameter) or a maximum of 2 months.

Data set [6] concerns peritoneal carcinomatosis (DHD cells). The experiment in a line: Phase I fine-tuning of collagenase peritoneal washing on rats with peritoneal carcinomatosis.
Method: For the development of the “in vivo” model, carcinomatosis was caused in 6 BDIX rats, treatment was proposed after 4 weeks. The treatment consisted of using different concentrations (370 U/mL, 2×148 U/mL, 74 U/mL, 37 U/mL, 0) of collagenase by means of peritoneal washing and it was performed in an open system by means of using a perfusion pump on 3 animals and without using any perfusion pump on 3 other animals (FIG. 3). […] The method for peritoneal washing consisted of, after giving the animals inhalation anesthesia, exposing the abdominal cavity with a longitudinal incision and filling the peritoneal cavity with collagenase diluted to the different concentrations mentioned above. Continuous washing of the peritoneum (only with Ringer's lactate) was then performed; the animals were chosen randomly in each case and treatment lasted for 10 minutes in all the animals.
Washed tissue samples as well as organs were collected for histological studies in all cases (FIG. 4).

Consider Collagenase, for which the “mesh and adhesion release after washing (dictation)” value in data set [1] (0.05% in PBS, 20 ml, 20 minutes, 37° C., single rats R11, R12, R17, R18, R19 in block order) was “one of the balls of hypochondrium loops breaks up with slight pulling and several pieces of mesh (3) are released; also recorded: mesh seen in the omentum is readily released with slight pulling. Another mesh in the suprapubic fat is dissected and released without damaging the fatty aggregate, 6 pieces of mesh being released with digital dissection and without bleeding; also recorded: One of the meshes contained in the ball of the terminal ileum separates completely with slight pulling; also recorded: Mesh separates from the hepatic omentum with slight pulling (there are two meshes, one of them is not readily separated successfully)”. In addition, the “efficacy in extracting meshes” value in data set [1] (group 1, blind study randomized in pairs, 0.05%, PBS control 8%) is 42%. In addition, the “Mutated KRAS event no.” value in data set [2] (group A (healthy rats, collagenase 37 U/mL)) was 0; in data set [2] (group F (DHD + collagenase 37 U/mL)), 1. Besides, the “macroscopic and histological findings” value in data set [3] was “No organ or tissue impairment is observed histologically; also recorded: elimination of the mesothelial cells covering the intestine and omentum is observed but without the involvement of any organ; also recorded: thinning of the mesothelial layer covering the intestinal tract without the involvement of intermediate or internal layers”. For the same substance, the “clinical observations half an hour after administration” value in data set [4] (mice 5 and 6, highest doses of collagenase) was “lethargic, exhibited signs of pain and a very reduced response to handling; also recorded: the abdominal wall had become detached”; in data set [4] (one mouse, 35 U/mL), “responded well to handling but exhibited signs of pain”. The mortality entry in data set [4] (mice with the highest doses of collagenase) is reported as “died within one hour”. In addition, the necropsy findings result in data set [4] (17.5 U/mL and 8.75 U/mL (one mouse each line)) was “somewhat hematic abdominal wall that has experienced the least thinning; also recorded: abdominal wall with a normal appearance and color”; in data set [4] (35 U/mL), “very thin hematic abdominal wall that ruptures by itself”; in data set [4] (87.5 U/mL) it was “hematic, practically transparent abdominal wall that completely comes off the skin and ruptures by itself when touched”. The survival in data set [5] is reported as 4 out of 5. The Macroscopic observations entry in data set [6] (animal ID 1, 35 U/ml, PCI 13) was “All rather hematic. Implants”; in data set [6] (animal ID 2, 8.75 U/ml, PCI 10, pump not used), “Pump is not used. Implants do”; in data set [6] (animal ID 3, 35 U/ml, PCI 2) it was “Mesoderm readily separates”; in data set [6] (animal ID 5, 87.5 U/ml, PCI 10) it was “All hematic. Omentum,”. Moreover, in data set [6] (rat, in vivo), the “follow-up of the only animal left alive after treatment” value is listed as “showed no impairments or pain”.
